Data: PMC9808734 (Nature Communications, 2023)

B1: HLAA3_1 (VHH)
VHH: EVQLVESGGGLVQPGGSLRLSCAASGFNVQGDGMHWVRQAPGKGLEWVAMVGPYSSYTYYADSVKGRFTISADTSKNTAYLQMNSLRAEDTAVYYCSRYSDGAFDYWGQGTLVTVSS
B2: HLAA3_11 (VHH)
VHH: EVQLVESGGGLVQPGGSLRLSCAASGFNIYSYGIHWVRQAPGKGLEWVAKVSPSSGYTYYADSVKGRFTISADTSKNTAYLQMNSLRAEDTAVYYCSRQYGYPYYFDYWGQGTLVTVSS
B3: HLAA3_10 (VHH)
VHH: EVQLVESGGGLVQPGGSLRLSCAASGFNVYYSGMHWVRQAPGKGLEWVAKISPDSGSTYYADSVKGRFTISADTSKNTAYLQMNSLRAEDTAVYYCSRDMYSVRSAMDYWGQGTLVTVSS
B4: HLAA3_5 (VHH)
VHH: EVQLVESGGGLVQPGGSLRLSCAASGFNLSYYWMHWVRQAPGKGLEWVASIYPDGSYTWYADSVKGRFTISADTSKNTAYLQMNSLRAEDTAVYYCSRGTYFAMDYWGQGTLVTVSS
B5: HLAA3_3 (VHH)
VHH: EVQLVESGGGLVQPGGSLRLSCAASGFNIYSYAMHWVRQAPGKGLEWVASVAPGSGYTYYADSVKGRFTISADTSKNTAYLQMNSLRAEDTAVYYCSRNKYYTAYYMDYWGQGTLVTVSS
B6: HLAA3_8 (VHH)
VHH: EVQLVESGGGLVQPGGSLRLSCAASGFNIYSYYIHWVRQAPGKGLEWVAKIYPDSGYTYYADSVKGRFTISADTSKNTAYLQMNSLRAEDTAVYYCSRSFSRYGYMDYWGQGTLVTVSS
B7: HLAA3_4 (VHH)
VHH: EVQLVESGGGLVQPGGSLRLSCAASGFNIYSYAMHWVRQAPGKGLEWVASFVPGSYATYYADSVKGRFTISADTSKNTAYLQMNSLRAEDTAVYYCSRGYYASYYFDVWGQGTLVTVSS
B8: HLAA3_7 (VHH)
VHH: EVQLVESGGGLVQPGGSLRLSCAASGFNVYYYWMHWVRQAPGKGLEWVASIYPDSDNTYYADSVKGRFTISADTSKNTAYLQMNSLRAEDTAVYYCSRGDYYYSYLDYWGQGTLVTVSS
B9: HLAA3_9 (VHH)
VHH: EVQLVESGGGLVQPGGSLRLSCAASGFNISTWLIHWVRQAPGKGLEWVAVVYPDSSYTYYADSVKGRFTISADTSKNTAYLQMNSLRAEDTAVYYCSRSWFSKSAMDYWGQGTLVTVSS
B10: HLAA3_6 (VHH)
VHH: EVQLVESGGGLVQPGGSLRLSCAASGFNIFGYYMHWVRQAPGKGLEWVAVVSPGSGYTNYADSVKGRFTISADTSKNTAYLQMNSLRAEDTAVYYCSRALYSAYFAYWGQGTLVTVSS
B11: HLAA3_2 (VHH)
VHH: EVQLVESGGGLVQPGGSLRLSCAASGFNITKYSIHWVRQAPGKGLEWVAMVGPYSSYTYYADSVKGRFTISADTSKNTAYLQMNSLRAEDTAVYYCSRFYSSYAFDVWGQGTLVTVSS

Target: HLA-A3 on CFPAC parental cells (Homo sapiens, HLA-A3 serotype, allele …, strain)

Row | Binder | binding result
1 | B1 | binds
2 | B2 | binds
3 | B3 | binds
4 | B4 | binds
5 | B5 | binds
6 | B6 | binds
7 | B7 | binds
8 | B8 | binds
9 | B9 | binds
10 | B10 | binds
11 | B11 | binds
